Reference: PMC7416497

Biological target: T1, ETS1 ΔN279 (UniProt P14921 279-441)
T1 sequence: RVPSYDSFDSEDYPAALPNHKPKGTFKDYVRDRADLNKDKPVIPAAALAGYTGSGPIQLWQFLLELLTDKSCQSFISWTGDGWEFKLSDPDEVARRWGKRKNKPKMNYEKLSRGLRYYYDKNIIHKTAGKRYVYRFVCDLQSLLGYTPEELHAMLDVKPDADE
Experiment: EMSA

B1: SC1 (dsDNA)
DNA 1: TCGACGGCCAAGCCGGAAGTGAGTGCC
DNA 2: TCGAGGCACTCACTTCCGGCTTGGCCG
Binder B1 has a Kd of 0.4 nM.
